Measured values reported in patent publication US20030170704A1, “Substance capable of controlling the inclusion of exon 10 of the tau gene, and its therapeutic use against tauopathies” (Max-Planck-Gesellschaft Zur Foerd Der Wissen. E.V., priority 1999, published 2003).

system: tau exon 10 inclusion (SV10 minigene); experiment: RT-PCR of tau exon 10 minigene SV10 1:1 co-transfected with splicing regulator cDNA plasmids in COS cells; format: cell-based, human; settings: 1:1 co-transfection, FIG. 4
Description: Plasmid DNA was purified by cesium chloride banding (Sambrook et al., 1989). The plasmids obtained in Examples 1 and 2 were introduced into cells by the lipofection method (LT1, Panvera).
Plates (100 mm) that had reached ˜30% confluence were transfected with 10 μg of construct DNA or 5 μg of each plasmid for co-transfections. The medium was changed 16 h after transfection, without glycerol shock.
Total RNA was isolated 48 h post-transfection by the TRIzol method (Life Technologies).
For PCR analysis of RNA, 5 mg of total RNA from transiently transfected cells or 1 mg of polyA^+ RNA were reverse transcribed using random hexamer primers and 200 units of reverse transcriptase (RNAase H^− Superscript, Life Technologies), in a total volume of 20 ml for 1 h at 42° C. Part of this reaction mix (5 ml) was then diluted to a final volume of 50 ml, the concentrations of the buffer and dNTPs were adjusted for PCR and the mixture was amplified for 22 cycles. The conditions were: for the endogenous gene, denaturation at 94° C. for 1 min, annealing at 58° C. for 1 min, extension at 72° C. for 1 min; for the constructs, denaturation at 94° C. for 1 min, annealing at 65° C. for 1 min, extension at 72° C. for 1 min.
The primer pair used for the endogenous exon 10 pattern was HT9SmS/1017HT (Table 2b). In the case of transfected cells, the primers INS1 and INS3 (Table 2b) were chosen to only amplify products arising from the constructs.
The RT-PCR experiments were done twice with the polyA^+ RNAs and with total RNAs from three independent transfections, to ensure reproducibility. […] In FIGS. 1-4, the percent of the 10^+ isoform was calculated by scanning the bands from three independent transfections and measuring the areas under the curves (by the IPLab Gel program from Scanalytics).
RT-PCR was performed in a manner as described in Example 4 (using primer pair: INS1/INS3), except that-mammalian cells were analyzed which had been 1:1 co-transfected with tau exon 10 containing minigene constructs (denoted SV 10) and with plasmids containing cDNA of various plicing regulators. […]

Row | Molecule | effect on tau exon 10 inclusion (10+/10- isoform ratio by RT-PCR)
1 | SRp75: serine/arginine-rich (SR) protein splicing regulator, expressed from cDNA under the CMV promoter (protein, UniProt Q08170 1-494, looked up) Serine/arginine-rich splicing …: MPRVYIGRLSYQARERDVERFFKGYGKILEVDLKNGYGFVEFDDLRDADDAVYELNGKDLCGERVIVEHARGPRRDGSYGSGRSGYGYRRSGRDKYGPPTRTEYRLIVENLSSRCSWQDLKDYMRQAGEVTYADAHKGRKNEGVIEFVSYSDMKRALEKLDGTEVNGRKIRLVEDKPGSRRRRSYSRSRSHSRSRSRSRHSRKSRSRSGSSKSSHSKSRSRSRSGSRSRSKSRSRSQSRSRSKKEKSRSPSKEKSRSRSHSAGKSRSKSKDQAEEKIQNNDNVGKPKSRSPSRHKSKSKSRSRSQERRVEEEKRGSVSRGRSQEKSLRQSRSRSRSKGGSRSRSRSRSKSKDKRKGRKRSREESRSRSRSRSKSERSRKRGSKRDSKAGSSKKKKKEDTDRSQSRSPSRSVSKEREHAKSESSQREGRGESENAGTNQETRSRSRSNSKSKPNLPSESRSRSKSASKTRSRSKSRSRSASRSPSRSRSRSHSRS | inhibited
2 | hSWAP: specific splicing regulator Suppressor of White Apricot, expressed from the SV40 early promoter (protein, UniProt Q12872 1-951, looked up) Splicing factor, suppressor …: MYGASGGRAKPERKSGAKEEAGPGGAGGGGSRVELLVFGYACKLFRDDERALAQEQGQHLIPWMGDHKILIDRYDGRGHLHDLSEYDAEYSTWNRDYQLSEEEARIEALCDEERYLALHTDLLEEEARQEEEYKRLSEALAEDGSYNAVGFTYGSDYYDPSEPTEEEEPSKQREKNEAENLEENEEPFVAPLGLSVPSDVELPPTAKMHAIIERTASFVCRQGAQFEIMLKAKQARNSQFDFLRFDHYLNPYYKFIQKAMKEGRYTVLAENKSDEKKKSGVSSDNEDDDDEEDGNYLHPSLFASKKCNRLEELMKPLKVVDPDHPLAALVRKAQADSSTPTPHNADGAPVQPSQVEYTADSTVAAMYYSYYMLPDGTYCLAPPPPGIDVTTYYSTLPAGVTVSNSPGVTTTAPPPPGTTPLPPPTTAETSSGATSTTTTTSALAPVAAIIPPPPDVQPVIDKLAEYVARNGLKFETSVRAKNDQRFEFLQPWHQYNAYYEFKKQFFLQKEGGDSMQAVSAPEEAPTDSAPEKPSDAGEDGAPEDAAEVGARAGSGGKKEASSSKTVPDGKLVKASFAPISFAIKAKENDLLPLEKNRVKLDDDSDDDEESKEGQESSSSAANTNPAVAPPCVVVEEKKPQLTQEELEAKQAKQKLEDRLAAAAREKLAQASKESKEKQLQAERKRKAALFLQTLKNPLPEAEAGKIEESPFSVEESSTTPCPLLTGGRPLPTLEVKPPDRPSSKSKDPPREEEKEKKKKKHKKRSRTRSRSPKYHSSSKSRSRSHSKAKHSLPSAYRTVRRSRSRSRSPRRRAHSPERRREERSVPTAYRVSRSPGASRKRTRSRSPHEKKKKRRSRSRTKSKARSQSVSPSKQAAPRPAAPAAHSAHSASVSPVESRGSSQERSRGVSQEKEAQISSAIVSSVQSKITQDLMAKVRAMLAASKNLQTSAS | inhibited
3 | U2AF65: constitutive splicing factor, expressed from cDNA under the CMV promoter (protein, UniProt P26368 2-475, looked up) Splicing factor U2AF 65 kDa …: SDFDEFERQLNENKQERDKENRHRKRSHSRSRSRDRKRRSRSRDRRNRDQRSASRDRRRRSKPLTRGAKEEHGGLIRSPRHEKKKKVRKYWDVPPPGFEHITPMQYKAMQAAGQIPATALLPTMTPDGLAVTPTPVPVVGSQMTRQARRLYVGNIPFGITEEAMMDFFNAQMRLGGLTQAPGNPVLAVQINQDKNFAFLEFRSVDETTQAMAFDGIIFQGQSLKIRRPHDYQPLPGMSENPSVYVPGVVSTVVPDSAHKLFIGGLPNYLNDDQVKELLTSFGPLKAFNLVKDSATGLSKGYAFCEYVDINVTDQAIAGLNGMQLGDKKLLVQRASVGAKNATLVSPPSTINQTPVTLQVPGLMSSQVQMGGHPTEVLCLMNMVLPEELLDDEEYEEIVEDVRDECSKYGLVKSIEIPRPVDGVEVPGCGKIFVEFTSVFDCQKAMQGLTGRKFANRVVVTKYCDPDSYHRRDFW | inhibited
